Results taken from US11285197B2, “Mesothelin vaccines and model systems” (priority 2002, dated 2022).

Target: T1, HLA-A2 (Homo sapiens, UniProt P04439, D140Y/D185E/D98H/E176V/E277Q/G131W/G231S/I119V/I121R/I166T/I218V/L300P/L318F/N151K/N90K/P208A/P217A/Q86G/Q94H/R138H/R169H/T345S)
T1 construct: pulsing TAP deficient T2 cells that expressed the corresponding HLA class I molecule (T2-A2, T2-A3, or T2-A24 cells); endogenous in cells; host or cells: human T2 cells (TAP-deficient B/T lymphoblast hybrid), called T2-A2
Experiment: T2 peptide/MHC binding assay, T2-A2 cells, W6/32 staining, flow cytometry
Settings: T2-A2 cells pulsed with peptide, HLA class I antibody W6/32, flow cytometry

In the case of EIDESLIFY (listed as Homo sapiens), the “detection of HLA-A2 on the cell surface of peptide-pulsed T2-A2 cells” value is reported as “do not stain”.
